Assay results: paper PMC5245964 (2017)

Target: MBP-M18BP1^1-140-8His (Homo sapiens (Human), UniProt Q6P0N0)
Assay: amylose-resin pull-down, CBB-stained gel; Mis18β Yippee domain alone does not bind; binding requires the Mis18α:Mis18β Yippee heterodimer (Mis18α Yippee domain present)

Chain of MBP-M18BP1^1-140-8His (Q6P0N0 1-140, one chain of several): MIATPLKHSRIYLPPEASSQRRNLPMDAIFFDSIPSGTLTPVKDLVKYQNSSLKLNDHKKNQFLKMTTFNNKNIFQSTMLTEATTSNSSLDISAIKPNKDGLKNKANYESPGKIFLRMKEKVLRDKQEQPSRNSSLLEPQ

- binding result: no binding
B1: 6His-Mis18β^73-189 (protein)
chain: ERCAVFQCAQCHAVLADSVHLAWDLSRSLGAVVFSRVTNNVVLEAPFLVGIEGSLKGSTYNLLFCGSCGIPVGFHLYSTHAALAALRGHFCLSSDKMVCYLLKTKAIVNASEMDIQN
